Assay: soluble fraction after stress (log2 fold change); higher = more stays soluble; pooled small domains, quantitative proteomics
Conditions: stress: 50 degC
How it was run: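 The measure of aggregation propensity here is the base-two logarithm of the fold change in the soluble amount of each protein after stress. A higher value means more of that protein stays in solution. Stress was applied at 50°C to pooled libraries of small protein domains, read out by high-throughput quantitative proteomics.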

Sequence	soluble fraction (log2)
HMETPEIPGLTPRQVEIMLLVGKGYSNKEIARFLTISPETVKTHLKEVFLRFGLRNRVEAIDFTRQNGL	-0.363
HMETPLSAADFKIVFGEEYEIGTDANGLPKMGSRINRQLQNRFLTWASVNKRKATMSAYQDWVASDPAAQ	-0.336
HMETQVKVPNVVGMTQSKAIAKLKESKLDYEVQEQKHDGDKGKVVDQSEAEGTYVDRGTKVIIYVSTGE	-0.088
HMETSIQFIRLEIGHNHPWVNQTLKEIPTIPGTLIAAVLRGDEDQAIIPKGDTLLKEGDSVIIGAKEYQD	-0.919
HMETSLVIQIDGAVNSPGIYQVTPGTRIFEALELAGGVREDAQTEALNLALPVYDGQRISIPSSFA	0.0796
HMETTVSYSGVVTASVLRIRKGPSVSSSVAGTLKKGTGVSIIFEDNGWGKLADGSGWVSLTYIKKNSTP	-0.302
HMETWDQAYETIKQNILNLTYPPGMPLTEAKLAEELGMSRSPVRTALRMLQTDGLIVTDYYKSMTVKEI	-1.71
HMETWKLYKRAYKKYYARYMKGNMSEADFKAWATQAAADRDAAIEQITPEIDAALKAQIIEQLREKLNR	-0.856
HMEVAAAENYRSKLSSFAKDTISVWQTELLLGTISDDDKASLTEWMAYIKALQVVDTSDPESITWPTEPT	-1.45
HMEVAASEQRDNLWALARRVLSGEQYDVLYLRYVEDFSVAQIADVVGKTQTHVKVLLFRGRNNLGSRLRS	0.199
HMEVENAQLLARLTPQEHRVFERVVAGLSNREIGSEMDISIKTVEVHRARVMRKLEANSVAELVRFHIHN	-2.25
HMEVGDTYLGKVTRVSSFGAFIEVLPGKEGLMRQNDAGEGGMPEVGDEVMVRVMEVDHLGRINLSGKLDD	-0.0268
HMEVGKRIAEIRKENRMSQEQFGQLFHVTRQTVSNWENAKSYPDLQTLVKISELFEITMDELLK	-0.511
HMEVKVSGHLEAIGGVYHMKLSWIDDAGKRRRKSKSTGLAERGNKKRANDMLIDFMREQEAEIAASGD	-1.02
HMEVLSKRGSTGTEVINIQKKLKNWGYYTGSVDGIYGKLTEEAVRYFQRTNGLTVDGIAGKNTLAAMGIA	-0.356
HMEVNLEPLIALLRKHRDLDLSGYSKSTLGRRITYFMGLNKISSIDELGRRLAEDDLLFQEFLDKLT	-0.0655
HMEVSLEDKMDYLTNYATTHKNFSFRNLLESSSGKIEVIVTFLAILELMKMGRINISQEHIFDDIIIESRI	-2.53
HMEVSTRQVRAALRDIIEAEDKKRPLSDEAITARLREQGLPVARRTVAKYREQMGILAARLRK	-0.309
HMEVVRVEPGATVRDLGEALGVPPTRIIQILMGLGEMKTVTQTLSTEEIELVAEELGRRVEV	0.135
HMEWVVVPDVRRQLLPEAQRRVNKARLRLEVAGGWPAEPLLAMVVDQKPGPETRVPLNSIVVVVVRNLP	-0.0473
HMEYELYALKEEVLKRLTREDRELLILLFEERRTIHAVAQRLGLSDSAVYKRRTQLVNKVKVIASMLM	-2.13
HMEYKNYYDSPVGRLELLSDGVSLTAVLFENQQGDGTREENTSLAIFKEATQWLDAYFKGDNPEITIPL	0.0756
HMEYKTGIINTNKVRVRNAADADATVIFAINKDIKVKILAEENGFYKIGVSVKNRGNGEDLIGFVKKELIT	-0.631
HMEYQTVEKSEAEQIIQELEKAERLALKVYSKNDIITGISVSDGKSYYFSAELVPMLKNIIENPEIKIL	-0.623
HMEYRVRDKMTDILELLTEHRGRIALRDAFPTGTREELLAAFLALLELTKMQTVIVYQDRLYDDIQIVMK	-0.204

Sequence	soluble fraction (log2)
HMEYSTLEIYSQTKKDLIEKSPHLNKVVYDKDDGYIYLLSFEKEDDLTSFKSNIENDSDIKRIEANV	0.0917
HMEYTVNRLAQISGVSKRTLRYYDEIGLLRPERVNPNGYRIYGQMQVDLLQQILFYRELGLPLEEIREII	-0.467
HMFAATGVVNAPSGLVLRETASKGGNPLATVPDKAQVEIVEEDGEWYKVKVNEQTGYLFAEFVNKTE	0.0336
HMFAQDQLFKKDNSKVDVKILEINTTEIKYKLFTYQDGPTITVAKKDVALIIYQNGVHEVIT	-2.15
HMFAVPAPEVDDILSEKKVDVLLLGPQVRYLLEQFTEKLKDKNIPIGVIPMVDYGMMNGSKVLALAEELIG	-0.0132
HMFDFGNHLRMLREKHGISQEELGRRVGRAGSVISNYENNIKIPTLDVLTTMARIYDVSLDYLVG	-1.36
HMFDFNNLSSLSDVELSVYRFVVNNPEKVAYMRVRDIAQKTHVANSSVMRFVHKIGFASFPEFKAYLKNIN	-1.03
HMFDITKEVLKQSGLYNLYKNDESLEGINRIQNIEELLNGIKDFVENNEKSQASVSSFLQDVALATDQ	0.126
HMFDKVSVNNLAEAIGRLDGIYQDVLRLYYVHELPSKEIGKILNINHLTVNTRLKRAREKLFKMLKEE	-2.57
HMFDNPLSERDKEILNHISMGKSNKEIANQVGLAEQTIKNTISVILDKTFTSNRAQAASMATKNKW	0.547
HMFDPTDLPEKQLMVYEIIKSNNGINMTNIASLLGFNKTTVDNAIRALKKKEIVVFKGTNRSGGYFNT	-1.66
HMFEDEYLETMYAFYETDPQALVRTGDLASSLKVSPASATEMVQRLASKGFVDYIPYKGASLTELGLAM	-0.184
HMFEDYLRMKGLSIVSFSKQTGIPISTLRNLNKIRYDKWKIRYLEELSNVLNKTIQEIIEELKNMG	-2.32
HMFEFFKGIYSISLLKKDGIFFVTFKDENKEAVKHIFPEKPTALELGIKVMEMFEYKERYDGII	-0.227
HMFEPLTDREREVLQALADGLSDKEIAERLYISPATVRTHITAILGKLDANSRLQAVVVAARHNLVTL	-0.0803
HMFERISELLTDEELAVYKRGRNANASSVPKHADIADYRRATGVEALFGYLYIKGEIDRINQLFELA	-0.23
HMFESQYIGKIATAITDISAFSGRLKIYDENWEARTLGEDAPEIKKGAKVKIVRHDDLTMFVEKK	-0.034
HMFETLVLALAQAWPAERGPVEALQFEGGRLSLQRSGFADEQVEALRQRLSSEGWTLQTEQGRLILNKAG	-0.884
HMFFDSDTDIQNALNAENSIKKYQLFRTQTLYNSAQSDIDFVNQPEVKAKLFDALENLKNKLGFLAEPT	-0.247
HMFGIEIPEEAGKLQDYTLTDDDLEGGNTLKEIQFPQGARVVIIRRDDKFIIPDGSVELQSGDQLLIIYGE	-0.578
HMFGSKDVKRAIEDYAAAMSSQPRALSAPQRKVLIRHLATSGLLQLRGAAKIVADELGISRASVYNALKV	-0.436
HMFHDPTMEETLINLKGITNEVLSLLSSSKIKKLEDLAEMSVPELRDIVENISDEEASALIMEARKPWF	-0.446
HMFHGEGVQANNIQAYIVLKMAAVNGAEDALDTADEVSEKMSREDLETATQVLGQIFRKYLMELQSA	-1.2
HMFIKVEVPDLTGMTLTEVRKALEEKNLKMGDIRPAGQTSLVAKVINQSPQAKMVVDEYSEVSIQFEE	-0.217
HMFIMQTVALGSEGPDVRALQSILNRIGYNAGTVDGIFGSRTRQAVIAFQRNNGLAADGVAGPATWG	0.122

Sequence	soluble fraction (log2)
HMFINITAITGNNYNTPDAARNALPNTYNKKIGLVFTYRDLTNRYRVYLYNSETSNYIPLDSYM	-3.39
HMFIPGDSVRVHVKVVEGSNERIQMFEGVVIARQGSGVRENFTVRRISYGVGIERTFPVHSPRL	0.103
HMFISVDGLIHMGRTHLVILGGVEFARGDMIPETGEVVKSIGADSVVLELPDTGMRRTLNFV	-2.92
HMFKINNIIVSGLSEKSNLQTSEEIKNILFENIFFIKKDVLFKILEKNNLINSFEIKKIYPDTIEVKIKKT	0.153
HMFKITNTLNKTAEVYLTIPENKKGKGKIMISVNGAFHELEAMTENDKIQSGAVVKVVRIENDNILIVET	-1.88
HMFKMRVNGKEVIGMAITAKPQANPIDVADEIKKFVIDANTKLPSTMKLEVLYDATGIFRASISEVIS	-0.273
HMFLDKDTLNQLYRFGIALTGNEQDSQDVLHTAIERFLRNKPQQINQQAAYIRTIMRNYWYDELRKLKTQ	-1.61
HMFLPETEVKSFFHRGITKISPSLAMDIADFFRMPFAVILKRALALEVISDEQYRSFMTVKPEHV	-0.014
HMFLSQQDINRANAASVTDMGDIIRRTFERNAAEINGLELSDAEKKDAVKQMATLATTALKTAAGAVNPY	-0.132
HMFLSSEERRERIIEVLRQQDEVTVVELSHRLGVSEVTTRKDLQQLEEQGYLTRVRGGAVVSGRGQL	-0.0183
HMFMNFAEHLMALRKQRGWSQEELGSQIGVTRQTVSKWEMGQSTPELEKLVELSRLFGMSIDQLVGL	0.0203
HMFNISEKLKKYRNALGLTQTEVAEKIEITKPTYASYEKGKDISIGTLKKLADLFEVSFESFFSE	-0.168
HMFNLFPHLSVLRNITLAPQKVKGLNRSESNEIAMSLLERVGIPEQSDKFPSQLSGGQQQRVAIARALAM	-0.402
HMFPELSEEEQIIVSLLQKQPDGLQINTLVVESNIPVNRMSGILFELEMKGIIRMAAGGVYRLL	-0.203
HMFQEGLVAPPAYTRPESFRGWEVPEILRSGNFPAIAKWQHEESLRLTRERRPAMLEAYERRT	0.121
HMFQNYTDAVVVASKTFFYNMPDESTRKSAYLIQGDRIMVEKSQRNFVYVTFTNEASGRTTTGWLKSDDLE	-2.9
HMFSDDEINRLKARDSILVNLRDSEKQVWELYTDGKTVQNIANQLNKHKQSISATIINIKNKISRKQNMLK	-0.534
HMFSGVQLGQAISEAIKRKNVSQKEVADHFGVKQPSVSGWIKNGRIDKKHLDKLIDYFSDVVTPSHFGIE	0.246
HMFSQDQIFLRSGEKIDARVIEVTPEFIKYKSKANPEGPLYSKKITDVLLITYANGTTEVYE	-0.00684
HMFTDAEIKQFAAAAVEVTKIQQDSTISAADKQPKMLAVVQSSGLPPEKFNQIGQAAAADPALQQRIQA	0.156
HMFTEPQKLVKRILNMLGHRYDDASIQARSDFQASNNYHKVQVKKKRESMEEYTAWLEEMYDAYRIN	-1.43
HMFTFEDMDKFESLLTTGLTDVQRRIYSLVTHDGKEYDLIAETLGISVEAVRMHMSRARKKIRENYKKID	-2.42
HMFTIGENIRDLRLERAITQEQLAEQLNVSAPAVSKWERGEAYPDITLVPKLAEILGVSTDKLFGVD	-0.0643
HMFTKYSPDFKLSVILDMRKNNLGYGEVVRKYWNLDSYKESDRHRSQVRLWERIFLEEGVEGFM	-4.64
HMFTLDDLQATYDIFERAEQNSDAMLAFQKVITAEGLDFDLTSPQGIVDFFKGAAPTEIYDLYEAS	-0.403

From the domain aggregation screens of Martell et al. (2025)
